US20120070446A1 (AstraZeneca / MedImmune, published 2012)

Assays:
[1] = target: F protein of RSV A2 virus (on virus particles, neutralization assay) (Respiratory Syncytial Virus A2, UniProt P03420 26-574); experiment: cell-based or functional assay
[2] = target: T1, HIS-tagged recombinant F protein from RSV Long strain (Respiratory Syncytial Virus Long strain, UniProt P12568 26-524); experiment: direct ELISA, HIS-tagged F on Ni-NTA HisSorp plates
T1 construct: also called recombinant HIS tagged F protein; recombinant RSV F Long strain containing a poly HIS tag; not shown: poly HIS tag
T1 sequence (P12568 26-524): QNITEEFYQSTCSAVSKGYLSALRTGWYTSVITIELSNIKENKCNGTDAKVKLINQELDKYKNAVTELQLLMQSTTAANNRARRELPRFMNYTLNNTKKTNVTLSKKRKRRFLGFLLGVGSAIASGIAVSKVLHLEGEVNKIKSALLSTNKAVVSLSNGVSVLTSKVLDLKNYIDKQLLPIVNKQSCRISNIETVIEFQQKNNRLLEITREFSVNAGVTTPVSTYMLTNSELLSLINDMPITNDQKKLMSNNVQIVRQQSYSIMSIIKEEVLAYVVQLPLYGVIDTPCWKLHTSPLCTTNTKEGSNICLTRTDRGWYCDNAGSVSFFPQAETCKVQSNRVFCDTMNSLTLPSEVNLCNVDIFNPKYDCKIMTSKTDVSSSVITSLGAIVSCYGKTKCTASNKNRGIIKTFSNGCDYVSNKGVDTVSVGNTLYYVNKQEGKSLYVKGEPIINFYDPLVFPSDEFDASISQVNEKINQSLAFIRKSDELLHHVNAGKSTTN

| Binder | IC50 (ng/ml), RSV neutralizing activity, TCID50 culture assay on HEp2 cells with the RSV A2 virus [1] [ng/mL] | binding result [2] |
| --- | --- | --- |
| palivizumab (antibody, V domains shown) VH: QVTLRESGPALVKPTQTLTLTCTFSGFSLSTSGMSVGWIRQPPGKALEWLADIWWDDKKDYNPSLKSRLTISKDTSKNQVVLKVTNMDPADTATYYCARSMITNWYFDVWGAGTTVTVSS VL: DIQMTQSPSTLSASVGDRVTITCKCQLSVGYMHWYQQKPGKAPKLLIYDTSKLASGVPSRFSGSGSGTEFTLTISSLQPDDFATYYCFQGSGYPFTFGGGTKLEIK | 152 | – |
| AM22 (recombinant AM22 mAb, human IgG1/Kappa) (antibody, V domains shown, also called AM22 antibody; AM22 monoclonal antibody) VH: QVQLVQSGAEVKKPGATVKVSCKISGHTLIKLSIHWVRQAPGKGLEWMGGYEGEVDEIFYAQKFQHRLTVIADTATDTVYMELGRLTSDDTAVYFCGTLGVTVTEAGLGIDDYWGQGTLVTVSS VL: EIVLTQSPGTLSLSPGERATLSCRASQIVSRNHLAWYQQKPGQAPRLLIFGASSRATGIPVRFSGSGSGTDFTLTINGLAPEDFAVYYCLSSDSSIFTFGPGTKVDFK | – | no binding |
